# Experimental data reported in publication PMC4027978.
# What was measured:
# [1] = target: GFP-FR (Folate Receptor), GPI-anchored, in MDCK cells; assay: Number and Brightness
# Number and Brightness = conditions: other: Number and Brightness (N&B) analysis
# GFP-FR, in CHO cells = assay: Number and Brightness
average B value (brightness) [1],"average B value (brightness) (GFP-FR, in CHO cells)","percent of GFP-FR in clusters of 3 to 4 or 5 molecules (GFP-FR, in CHO cells) [%]",Substance,percent of GFP-FR in aggregates of three-four molecules (Number and Brightness)
1.29,,,"GFP-FR (Folate Receptor), GPI-anchored, in MDCK cells",about 30-35% of GFP-FR
,1.36,50,"GFP-FR, in CHO cells",
